# Reference: paper PMC3510508, “Rbg1–Tma46 dimer structure reveals new functional domains and their role in polysome recruitment” (Nucleic Acids Research, 2012)
# B1: Rbg1Δ175–243+Gly–Tma46_205–345 (ΔS5D2L) (Saccharomyces cerevisiae S288C; DEL175-243/INS174G) (protein)
# chain: MSTTVEKIKAIEDEMARTQKNKATSFHLGQLKAKLAKLRRELLTSASSGSGGGAGIGFDVARTGVASVGFVGFPSVGKSTLLSKLTGTESEAAEYEFTTLVTVPGVIRYKGAKIQMLDLPGIIDGAKDGRGRGKQVIAVARTCNLLFIILDVNKPLHHKQIIEKELEGVGIRLNGPAIYVLNKIDSLSIEELELLYRIPNAVPISSGQDWNLDELLQVMWDRLNLVRIYTKPKGQIPDFTDPVVLRSDRCSVKDFCNQIHKSLVDDFRNALVYGSSVKHQPQYVGLSHILEDEDVVTILKK
# notes: 6His-tagged Rbg1 with S5D2L domain (175-243) replaced by one Gly, co-expressed in E. coli with Tma46 205-345; with Translation machinery-associated protein 46
# B2: Rbg1fl–Tma46_205–345 (Saccharomyces cerevisiae S288C) (protein)
# chain: MSTTVEKIKAIEDEMARTQKNKATSFHLGQLKAKLAKLRRELLTSASSGSGGGAGIGFDVARTGVASVGFVGFPSVGKSTLLSKLTGTESEAAEYEFTTLVTVPGVIRYKGAKIQMLDLPGIIDGAKDGRGRGKQVIAVARTCNLLFIILDVNKPLHHKQIIEKELEGVGIRLNKTPPDILIKKKEKGGISITNTVPLTHLGNDEIRAVMSEYRINSAEIAFRCDATVDDLIDVLEASSRRYMPAIYVLNKIDSLSIEELELLYRIPNAVPISSGQDWNLDELLQVMWDRLNLVRIYTKPKGQIPDFTDPVVLRSDRCSVKDFCNQIHKSLVDDFRNALVYGSSVKHQPQYVGLSHILEDEDVVTILKK
# notes: 6His-tagged full-length Rbg1 (N-terminal tag) co-expressed in E. coli with Tma46 residues 205-345; heterodimer; with Translation machinery-associated protein 46
# B3: Rbg1fl–Tma46_239–345 (Tma46Δα1) (Saccharomyces cerevisiae S288C) (protein)
# chain: MSTTVEKIKAIEDEMARTQKNKATSFHLGQLKAKLAKLRRELLTSASSGSGGGAGIGFDVARTGVASVGFVGFPSVGKSTLLSKLTGTESEAAEYEFTTLVTVPGVIRYKGAKIQMLDLPGIIDGAKDGRGRGKQVIAVARTCNLLFIILDVNKPLHHKQIIEKELEGVGIRLNKTPPDILIKKKEKGGISITNTVPLTHLGNDEIRAVMSEYRINSAEIAFRCDATVDDLIDVLEASSRRYMPAIYVLNKIDSLSIEELELLYRIPNAVPISSGQDWNLDELLQVMWDRLNLVRIYTKPKGQIPDFTDPVVLRSDRCSVKDFCNQIHKSLVDDFRNALVYGSSVKHQPQYVGLSHILEDEDVVTILKK
# notes: 6His-tagged full-length Rbg1 with Tma46 residues 239-345 (lacks helix α1), expressed in E. coli; with Translation machinery-associated protein 46
# B4: Tma46_(205–345 I241A) (domain or fragment)
# chain: EQKRLERESLEKQPKITLEEFIETERGKLDKSKLTPATIANFAQWKKDHVIAKINAEKKLSSKRKPTGREIILKMSAENKSFETDNADMPDDVTQGSAWDLTEFTDALKKADHQDDGGIKDYGDGSNPTFDIKKANSATLA
# B5: Tma46_(205–345 I241A, F246A) (domain or fragment)
# chain: EQKRLERESLEKQPKITLEEFIETERGKLDKSKLTPATIANAAQWKKDHVIAKINAEKKLSSKRKPTGREIILKMSAENKSFETDNADMPDDVTQGSAWDLTEFTDALKKADHQDDGGIKDYGDGSNPTFDIKKANSATLA
# B6: Tma46_(205–345 W249A K250E) (domain or fragment)
# chain: EQKRLERESLEKQPKITLEEFIETERGKLDKSKLTPITIANFAQAEKDHVIAKINAEKKLSSKRKPTGREIILKMSAENKSFETDNADMPDDVTQGSAWDLTEFTDALKKADHQDDGGIKDYGDGSNPTFDIKKANSATLA
# Key:
# [1] = substrate: Nc1nc2c(ncn2[C@@H]2O[C@H](COP(=O)(O)OP(=O)(O)OP(=O)(O)O)[C@@H](O)[C@H]2O)c(=O)[nH]1; test: malachite green phosphate release; format: biochemical, Saccharomyces cerevisiae; conditions: 100 mM KCl, 50 mM Tris pH 7.5, 5 mM MgCl2, 37°C, 1 h, 20 μM protein
# [2] = substrate: Nc1nc2c(ncn2[C@@H]2O[C@H](COP(=O)(O)OP(=O)(O)OP(=O)(O)O)[C@@H](O)[C@H]2O)c(=O)[nH]1; test: malachite green phosphate release; format: biochemical, Saccharomyces cerevisiae; conditions: 100 mM KCl, 50 mM Tris pH 7.5, 5 mM MgCl2, 37°C, 1 h, 20 μM protein; remark: listed apart in the source
# Excerpt: malachite green phosphate release on Rbg1fl–Tma46_205–345
# [3] = substrate: Nc1nc2c(ncn2[C@@H]2O[C@H](COP(=O)(O)OP(=O)(O)OP(=O)(O)O)[C@@H](O)[C@H]2O)c(=O)[nH]1; test: malachite green phosphate release; format: biochemical, Saccharomyces cerevisiae; conditions: 100 mM KCl, 50 mM Tris pH 7.5, 5 mM MgCl2, 37°C, 1 h, 20 μM protein; remark: listed apart in the source
# Excerpt: malachite green phosphate release on Rbg1fl–Tma46_239–345 (Tma46Δα1)
# [4] = target: T1, 6His-tagged full-length Rbg1 (yeast) (UniProt P39729)
# T1 sequence: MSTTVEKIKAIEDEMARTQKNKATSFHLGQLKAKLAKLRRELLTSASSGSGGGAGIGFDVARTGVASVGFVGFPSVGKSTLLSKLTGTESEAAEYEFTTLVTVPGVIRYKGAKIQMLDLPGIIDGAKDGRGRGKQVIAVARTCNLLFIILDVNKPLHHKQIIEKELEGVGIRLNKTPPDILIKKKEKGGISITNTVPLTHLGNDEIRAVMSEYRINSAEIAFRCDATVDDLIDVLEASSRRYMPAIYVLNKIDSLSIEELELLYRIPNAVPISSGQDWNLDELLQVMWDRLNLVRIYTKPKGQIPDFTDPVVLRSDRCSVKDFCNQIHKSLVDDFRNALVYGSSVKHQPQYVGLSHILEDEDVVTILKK
binder,measurement,setting,value
B1,Km,[1],221.5 ± 159.2 µM
same,Vmax,[1],1.57e-05 µmol/min/mg
same,kcat,[1],1e-05 s⁻¹
B2,Km,[2],304.1 ± 32.5 µM
same,Vmax,[2],5.93e-05 µmol/min/mg
same,kcat,[2],5.67e-05 s⁻¹
B3,Km,[3],191.2 ± 26.6 µM
same,Vmax,[3],3.7e-05 µmol/min/mg
same,kcat,[3],3.33e-05 s⁻¹
B4,"GTP hydrolysis (Malachite green), Vmax (nmol min^−1 mg^−1)",[4],0.0406
same,"GTP hydrolysis (Malachite green), kcat",[4],3.83e-05 s⁻¹
B5,"GTP hydrolysis (Malachite green), Vmax (nmol min^−1 mg^−1)",[4],0.0288
same,"GTP hydrolysis (Malachite green), kcat",[4],2.83e-05 s⁻¹
B6,"GTP hydrolysis (Malachite green), Vmax (nmol min^−1 mg^−1)",[4],0.0345
same,"GTP hydrolysis (Malachite green), kcat",[4],3.33e-05 s⁻¹
